The values that follow come from article PMC11718230 (Nature Communications, 2025).

In the assay the target is T1, ATTO647N-STX17 SNARE domain (residues 161-231, E198C) (UniProt P56962 161-231, E198C, ATTO647N maleimide conjugated (cysteine introduced by E198C)).
T1 sequence (looked up): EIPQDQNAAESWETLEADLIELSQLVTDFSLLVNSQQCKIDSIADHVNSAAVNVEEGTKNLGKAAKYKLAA
The assay can be described thus: FRET or BRET. For orientation: In BRET a luciferase serves as donor, and the signal depends on an acceptor being close.

B1: ATTO550-VAMP7 SNARE domain (residues 123-187, E152C) (domain or fragment, UniProt P51809 123-187, looked up)
chain: LDKVMETQAQVDELKGIMVRNIDLVAQRGC(ATTO550 maleimide)RLELLIDKTENLVDSSVTFKTTSRNLARAMCMKNL
Consider B1, for which the binding result was “binds”.

B2: ATTO550-VAMP8 SNARE domain (10-74, E39C) (domain or fragment, UniProt Q9BV40 10-74, looked up)
chain: NDRVRNLQSEVEGVKNIMTQNVERILARGC(ATTO550 maleimide)NLEHLRNKTEDLEATSEHFKTTSQKVARKFWWKNV
B2: the binding result is on record as “binds”.
